The source of these data is patent US8409833B2 (Hokko Chemical Industry Co., Ltd., priority 2003, dated 2013).

As a reminder, the Km is the concentration of substrate that gives half-maximal velocity.

Holding throughout (format): biochemical
Data set [1] is described as follows: Km values of scyllo-inositol dehydrogenase for scyllo-inosose (reciprocal plot). Particulars: NADPH, pH 8.0, 36° C. The procedure:
The determination is carried out such that the Km value is calculated after reciprocal plot according to the general method.
After the reaction, […] of water was immediately added thereto, and the absorbance at 340 nm was measured. From the blank value of a test solution prepared by using water instead of the enzyme solution, the decrease in the absorbance at 340 nm was measured. The enzyme solution was diluted as required. The Km values were calculated by the reciprocal plot.

Data set [2] is described as follows: Optimum pH of scyllo-inositol dehydrogenase. Particulars: 200 mM phosphate buffer (pH 5.0 to 9.0); 90% or more of the maximum activity. On the procedure: The optimum pH can be confirmed by: mixing 5 μl of a reaction solution (200 mM […] of pH 5.0 to 9.0 containing 2% of NADPH, and 1% of scyllo-inosose) and 5 μl of an enzyme solution; allowing the mixture to react at 36° C. for 30 minutes; adding 500 μl of water immediately after the completion of the reaction; determining the absorbance at 340 nm; and determining a decrease in the absorbance at 340 nm with respect to a blank value of a test solution containing water instead of the enzyme solution. The term “optimum pH” means a pH at which the enzyme has 90% or more of the maximum activity. The enzyme of the present invention can be divided depending on, for example, a range of the optimum pH into groups each having: an optimum pH in an acidic region (optimum pH is pH of 5.5 to 6.5); an optimum pH in a neutral region (optimum pH is pH of 6.5 to 7.5 or 6.5 to 8.5); and an optimum pH in an alkaline region (optimum pH is pH of 7.0 to 8.5 or 7.5 to 9.0).
The optimum pH of the enzymes of the present invention was determined by: mixing 5 μl of a reaction solution (200 mM phosphate buffer (pH 5.0 to 9.0), 2% of NADPH, and 1% of scyllo-inosose) with 5 μl of an enzyme solution; and allowing the mixture to react at 36° C. for 30 min. After the reaction, 500 μl of water was immediately added thereto, and the absorbance at 340 nm was measured. From the blank value of a test solution prepared by using water instead of the enzyme solution, the decrease in the absorbance at 340 nm was measured. The enzyme solution was diluted as required.

A short description of data set [3]: Substrate specificity of scyllo-inositol dehydrogenase (relative activity of oxidation, absorbance at 545 nm). The conditions noted are these: relative to reactivity to scyllo-inositol, NADP^+, pH 8.0, 25° C. The procedure: Examples of an inositol isomer include scyllo-inositol (SI), myo-inositol (MI), D-chiro-inositol (DCI), L-chiro-inositol (LCI), epi-inositol (EI), muco-inositol (MuI), allo-inositol (AI), and neo-inositol (NI).
The inositol isomers include scyllo-inositol (SI), myo-inositol (MI), D-chiro-inositol (DCI), L-chiro-inositol (LCI), epi-inositol (EI), muco-inositol (MuI), allo-inositol (AI), and neo-inositol (NI).
The reaction rate was calculated from the absorbance increments at the respective times.

A short description of data set [4]: Enzyme reaction product of scyllo-inosose reduction measured by HPLC. The conditions noted are these: for share of scyllo-inositol in the product of scyllo-inosose reduction: 10 mg scyllo-inosose, 40 mg NADPH, 10 U enzyme, 36° C., 4 hours, myo-inositol not detected; for Reduction reaction product: SIS: scyllo-inosose, SI: scyllo-inositol. On the procedure:
Meanwhile, the enzyme reaction product was measured as follows: 10 mg of scyllo-inosose, 40 mg of NADPH, and 10 U of the enzyme were allowed to react in 1.0 ml of 100 mM Tris buffer (pH 8.0) at 36° C. for 4 hours, and a heat treatment was performed at 80° C. for 10 min, followed by cooling. Then, 100 μl of a strong base cation exchange resin, 100 μl of a strong acid anion exchange resin, and 10 mg of activated carbon were added, and the mixture was stirred and centrifuged. Then, the supernatant was diluted 2-fold, and measurement was performed by HPLC (Shodex Asahipak NH2P-50 4E Φ 4.6×250 mm: Shodex) using an RI detector under the condition of a column temperature of 40° C. and a mobile phase flow rate of 1.5 ml (80% acetonitrile). […] Meanwhile, the sequence of the ydgJ gene is shown in SEQ ID NO: 1, and the amino acid sequence corresponding thereto is shown in SEQ ID NO: 2.
Meanwhile, enzyme reaction product was measured as follows: 10 mg of scyllo-inosose, 40 mg of NADPH, and 10 U of the enzyme were allowed to react in 1.0 ml of 100 mM Tris buffer (pH 8.0) at 36° C. for 4 hours, and a heat treatment was performed at 80° C. for 10 min, followed by cooling. Then, 100 μl of a strong base cation exchange resin, 100 μl of a strong acid anion exchange resin, and 10 mg of activated carbon were added, and the mixture was stirred and centrifuged. Then, the supernatant was diluted 2-fold, and measurement was performed by HPLC (Shodex Asahipak NH2P-50 4E Φ 4.6×250 mm: Shodex) using an RI detector under conditions of a column temperature of 40° C. and a mobile phase flow rate of 1.5 ml (80% acetonitrile).

The nature of data set [5]: Effects of heavy metal on scyllo-inositol dehydrogenase. The conditions noted are these: 2 mM heavy metal in reaction solution, no addition group = 100%. The procedure: Effects by the heavy metals can be confirmed by: mixing 5 μl of a reaction solution (200 mM Tris buffer of pH 8.0 containing 2% of NADPH, 1% of scyllo-inosose, and 2 mM metal salt) and 5 μl of an enzyme solution; allowing the mixture to react at 36° C. for 30 minutes; adding 500 μl of water immediately after the completion of the reaction; determining the absorbance at 340 nm; and determining a decrease in the absorbance at 340 nm with respect to a blank value of a test solution containing water instead of the enzyme solution. The term “activated” means the case where the enzymatic activity of a fraction added with 1 mM of a heavy metal is 105% or more, preferably 120% or more, with respect to the enzymatic activity of a fraction added with no heavy metal as 100%. On the other hand, the term “inhibited” means the case where the enzymatic activity of the fraction added with 1 mM of a heavy metal is 95% or less, preferably 70% or less, with respect to the enzymatic activity of the fraction added with no heavy metal as 100%.
The effects of heavy metal on the enzymes of the present invention were determined by: mixing 5 μl of a reaction solution (200 mM Tris buffer (pH 8.0), 2% of NADPH, 1% of scyllo-inosose, and 2 mM of a heavy metal) with 5 μl of an enzyme solution; and allowing the mixture to react at 36° C. for 30 min. After the reaction, 500 μl of water was immediately added thereto, and the absorbance at 340 nm was measured. From the blank value of a test solution prepared by using water instead of the enzyme solution, the decrease in the absorbance at 340 nm was measured. The enzyme solution was diluted as required. CaCl2, CoCl2, ZnSO4, MgSO4, SnCl2, NiCl2, and MnSO4 were used as metallic salts. The activity of the no addition group was defined as 100%, and the relative activities were compared. […] Most of the enzymes were inhibited in the presence of Zn^2+ ion, in contrast, the enzyme derived from Bacillus subtilis 168 was activated in the presence of Zn^2+ ion.

Entries after “also recorded” stand apart in the source; their conditions may differ.

B1: AB10121 Atu4375 gene: recombinant scyllo-inositol dehydrogenase, Atu4375 gene product of Agrobacterium sp. AB10121 FERM P-17383, SEQ ID NO: 10 (protein, listed as Agrobacterium sp.)
chain: MSSAPKKFDSRRIRLGMVGGGQGAFIGAVHRIAARLDDRYELVAGALSSDPARAAASATLLGIAPERSYASFEEMAAAEAGRDDGIEAVAIVTPNHLHFAPSKAFLEAGIHVICDKPVTATLEEAKALAEIVRASDSLFVLTHNYTGYAMLRQMRQMVADGAIGKLRHVQAEYAQDWLTEAVEKTGAKGAEWRTDPSRSGAGGAIGDIGTHAFNAAAFVTGEIPKSLYADLTSFVPGRQLDDSANILLRYESGAKGMLWASQIAVGNENALSLRVYGEKGGLEWHHRVPDELWFTPYGEPKRLITRNGAGAGAAANRVSRVPSGHPEGYLEGFATIYREAADAIIAKREGKAAAGEVIYPGMEDGLAGLAFIDAAVRSSQTSTWINIDI
On to B1, for which, in data set [1], the Km is 9.8 mM. The “Optimum pH” value in data set [2] is “pH 6.5-8.5”. Besides, in data set [3], the “Substrate specific Relative activity (20 to 70%)” value is “LCI, MuI”; the “Substrate specific Relative activity (70% or more)” value is “SI, MI, DCI, EI”; the “Substrate specific Relative activity (less than 20%)” value is listed as “AI, NI”. Besides, in data set [4], the “share of scyllo-inositol in the product of scyllo-inosose reduction” value (“share … of scyllo-inosose reduction” for short) was 100% and the Reduction reaction product result was “Only SIS → SI”. Moreover, in data set [5], the “Heavy metal effects: activation” value was “Co, Mn” and the “Heavy metal effects: strong inhibition” value is on record as “Sn, Zn”.

B2: BG14057 gene: recombinant scyllo-inositol dehydrogenase, BG14057 gene product of Bacillus subtilis 168 ATCC23857, SEQ ID NO: 8 (protein, listed as Bacillus subtilis)
chain: MITLLKGRRKVDTIKVGILGYGLSGSVFHGPLLDVLDEYQISKIMTSRTEEVKRDFPDAEVVHELEEITNDPAIELVIVTTPSGLHYEHTMACIQAGKHVVMEKPMTATAEEGETLKRAADEKGVLLSVYHNRRWDNDFLTIKKLISEGSLEDINTYQVSYNRYRPEVQARWREKEGTATGTLYDLGSHIIDQTLHLFGMPKAVTANVMAQRENAETVDYFHLTLDYGKLQAILYGGSIVPANGPRYQIHGKDSSFIKYGIDGQEDALRAGRKPEDDSWGADVPEFYGKLTTIRGSDKKTETIPSVNGSYLTYYRKIAESIREGAALPVTAEEGINVIRIIEAAMESSKEKRTIMLEH
For the molecule B2, in data set [1], the Michaelis-Menten constant (Km) is 3.5 mM. Also, the “Optimum pH” value in data set [2] is given as “pH 7.0-8.5”. Moreover, in data set [3], the “Substrate specific Relative activity (20 to 70%)” value is on record as “DCI, EI, AI, NI”; the “Substrate specific Relative activity (70% or more)” value was “SI, MI”; the “Substrate specific Relative activity (less than 20%)” value is reported as “LCI, MuI”. In data set [4], the “share … of scyllo-inosose reduction” value worked out at 100% and the Reduction reaction product result is given as “Only SIS → SI”. For the same molecule, in data set [5], the “Heavy metal effects: activation” value is recorded as “Co, Mn, Zn” and the “Heavy metal effects: strong inhibition” value is “Sn”. The “Heavy metal effects: activation” value in data set [5] (listed as enzyme derived from Bacillus subtilis 168) is “Zn^2+ ion”.

B3: Xcc3438 gene: recombinant scyllo-inositol dehydrogenase, Xcc3438 gene product of Xanthomonas campestris pv. campestris ATCC33913, SEQ ID NO: 14 (protein)
chain: MPKPFNLAVVGYGYVGRTFHAPLIASTPGLQLHSVVSSKPQQPQADFREVRVLPDLEAALADPALDAVVIATPNQTHAPMALQALAAGKHVLVDKPFALDAAQARTVVDAAAEAGKIVSVFQNRRWDADFLTVRRLIEDGQLGEVVEFHSHFDRYRPQVRDRWRESDIPGAGLWYDLGPHLLDQALQLFGMPQAISADLQRQRTQARSDDYFNVVLRYPRLRVILHAGSLVADGSLRFAVHGTRGSYLKHGADTQEDQLRAGRRPGTAGWGMDPLPGTLTRVDDEGRVHTHQPDGVPGDYRHCYAAFRDAMAGTAPPPVSAADAVRLMELLELAQRGAALGQVLWLEGNSSD
modifications: Xanthomonas campestris pv. campestris
In the case of B3, the Michaelis-Menten constant (Km) in data set [1] turned out to be 9.1 mM. The “Optimum pH” value in data set [2] is recorded as “pH 6.5-7.5”. In data set [3], the “Substrate specific Relative activity (70% or more)” value is listed as “SI, DCI” and the “Substrate specific Relative activity (less than 20%)” value is given as “EI, LCI, MuI,; also recorded: AI, NI”. For the same molecule, in data set [4], the “share … of scyllo-inosose reduction” value is 100% and the Reduction reaction product result is reported as “Only SIS → SI”. For the same molecule, in data set [5], the “Heavy metal effects: activation” value is on record as “Co” and the “Heavy metal effects: strong inhibition” value is on record as “Sn, Zn”.
